Key:
c-Abl (mouse) = assay: phosphorylation enrichment, bacterial display (enrichment ratio); higher = better substrate or ligand; peptides without Tyr show the background
EPHB2 = EPHB2 (UniProt P29323); assay: as above
AncSZ = assay: as above
Fer (mouse) = assay: as above
Fyn = Fyn (UniProt P06241); assay: as above
Fes = Fes (UniProt P07332); assay: as above
Hck = Hck (UniProt P08631); assay: as above
FGFR1 = FGFR1 (UniProt P11362); assay: as above
MERTK = MERTK (UniProt Q12866); assay: as above
FGFR3 = FGFR3 (UniProt P22607); assay: as above
FGFR3, sequence (P22607 whole entry, looked up): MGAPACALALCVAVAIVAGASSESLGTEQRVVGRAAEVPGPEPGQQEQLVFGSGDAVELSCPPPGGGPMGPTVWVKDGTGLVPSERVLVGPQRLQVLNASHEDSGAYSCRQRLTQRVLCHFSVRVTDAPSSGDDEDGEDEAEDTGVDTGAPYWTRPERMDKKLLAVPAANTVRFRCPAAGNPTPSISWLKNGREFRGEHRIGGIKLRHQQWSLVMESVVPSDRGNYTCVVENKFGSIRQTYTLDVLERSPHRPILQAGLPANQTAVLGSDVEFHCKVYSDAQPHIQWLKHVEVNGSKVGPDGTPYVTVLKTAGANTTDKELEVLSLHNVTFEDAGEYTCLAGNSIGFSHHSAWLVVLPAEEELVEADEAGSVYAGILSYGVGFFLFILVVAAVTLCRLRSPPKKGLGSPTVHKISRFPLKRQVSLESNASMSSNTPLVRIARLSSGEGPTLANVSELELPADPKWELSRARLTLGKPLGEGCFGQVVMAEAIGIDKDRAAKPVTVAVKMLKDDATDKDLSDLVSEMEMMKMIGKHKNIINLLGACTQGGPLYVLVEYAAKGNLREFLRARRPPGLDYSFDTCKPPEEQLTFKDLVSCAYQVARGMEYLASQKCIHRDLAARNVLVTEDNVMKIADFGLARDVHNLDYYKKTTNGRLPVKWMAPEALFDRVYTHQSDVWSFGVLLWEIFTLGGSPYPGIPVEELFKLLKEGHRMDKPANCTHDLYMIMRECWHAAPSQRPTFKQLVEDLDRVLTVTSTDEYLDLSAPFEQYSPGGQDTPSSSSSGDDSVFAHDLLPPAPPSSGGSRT

c-Src = assay: as above
EPHB1 = EPHB1 (UniProt P54762); assay: as above
Jak2 = Jak2 (UniProt O60674); assay: as above
SHP2-C SH2 = assay: SH2 binding enrichment of the phosphorylated peptide, bacterial display (enrichment ratio); higher = better substrate or ligand; peptides without Tyr show the background
Grb2 SH2 = Grb2 SH2 (UniProt P62993); assay: as above
c-Src SH2 = assay: as above
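Wherever SH2 binding enrichment of the phosphorylated peptide, bacterial display is given: peptide library displayed on the E. coli surface as eCPX fusions, selected cells deep-sequenced, score is each peptide's frequency after selection divided by its frequency in the input.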
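Wherever phosphorylation enrichment, bacterial display is given: 11-residue human phosphosite peptides and single-mutation variants displayed on the E. coli surface, counted by deep sequencing, each peptide's frequency after selection divided by its frequency in the unselected input library; frequency after pTyr selection over input frequency; kinase dosed for 20-30% of maximal phosphorylation in three min.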

Fes, sequence (P07332 whole entry, looked up): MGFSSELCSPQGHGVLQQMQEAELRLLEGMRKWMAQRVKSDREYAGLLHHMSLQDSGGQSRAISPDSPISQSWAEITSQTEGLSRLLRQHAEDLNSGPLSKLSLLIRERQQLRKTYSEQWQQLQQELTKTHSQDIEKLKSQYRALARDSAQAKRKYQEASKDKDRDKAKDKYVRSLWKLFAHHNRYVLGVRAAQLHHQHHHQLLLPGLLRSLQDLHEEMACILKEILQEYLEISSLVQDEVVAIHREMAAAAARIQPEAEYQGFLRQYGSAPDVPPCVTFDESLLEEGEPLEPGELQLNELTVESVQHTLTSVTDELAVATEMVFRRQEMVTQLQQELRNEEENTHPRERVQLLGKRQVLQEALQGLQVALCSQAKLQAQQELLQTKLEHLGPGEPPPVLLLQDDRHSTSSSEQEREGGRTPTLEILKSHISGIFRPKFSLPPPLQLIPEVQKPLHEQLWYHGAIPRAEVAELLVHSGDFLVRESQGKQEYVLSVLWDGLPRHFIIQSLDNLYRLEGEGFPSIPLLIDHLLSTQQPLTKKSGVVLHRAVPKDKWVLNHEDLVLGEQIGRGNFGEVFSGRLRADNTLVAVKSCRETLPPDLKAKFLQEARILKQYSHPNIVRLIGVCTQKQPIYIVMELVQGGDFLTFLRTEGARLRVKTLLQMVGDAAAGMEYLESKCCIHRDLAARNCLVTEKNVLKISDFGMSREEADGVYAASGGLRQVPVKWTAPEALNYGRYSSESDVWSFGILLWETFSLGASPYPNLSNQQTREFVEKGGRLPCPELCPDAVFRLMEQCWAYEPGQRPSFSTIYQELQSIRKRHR
FGFR1, sequence (P11362 whole entry, looked up): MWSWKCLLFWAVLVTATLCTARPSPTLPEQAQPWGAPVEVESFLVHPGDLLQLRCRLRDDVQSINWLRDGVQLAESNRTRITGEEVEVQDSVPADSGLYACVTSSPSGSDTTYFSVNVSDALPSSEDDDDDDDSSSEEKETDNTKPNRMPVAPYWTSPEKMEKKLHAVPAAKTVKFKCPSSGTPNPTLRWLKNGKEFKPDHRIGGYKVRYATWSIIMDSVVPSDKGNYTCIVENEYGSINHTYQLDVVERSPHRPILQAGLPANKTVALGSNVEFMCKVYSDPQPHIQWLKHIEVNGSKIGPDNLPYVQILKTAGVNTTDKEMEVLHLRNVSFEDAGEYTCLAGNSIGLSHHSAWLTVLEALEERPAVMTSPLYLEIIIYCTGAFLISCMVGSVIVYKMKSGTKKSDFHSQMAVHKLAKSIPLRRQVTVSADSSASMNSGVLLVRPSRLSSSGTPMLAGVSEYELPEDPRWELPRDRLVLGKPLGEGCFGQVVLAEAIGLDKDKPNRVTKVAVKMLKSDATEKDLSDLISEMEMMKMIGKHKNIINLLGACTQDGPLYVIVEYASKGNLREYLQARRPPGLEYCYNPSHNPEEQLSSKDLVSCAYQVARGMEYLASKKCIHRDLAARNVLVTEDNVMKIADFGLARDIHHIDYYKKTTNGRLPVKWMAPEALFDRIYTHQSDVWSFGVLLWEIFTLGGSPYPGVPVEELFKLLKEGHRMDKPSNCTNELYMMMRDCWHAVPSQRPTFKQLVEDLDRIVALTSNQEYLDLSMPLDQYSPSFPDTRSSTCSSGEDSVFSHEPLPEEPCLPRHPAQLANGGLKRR
Fyn, sequence (P06241 whole entry, looked up): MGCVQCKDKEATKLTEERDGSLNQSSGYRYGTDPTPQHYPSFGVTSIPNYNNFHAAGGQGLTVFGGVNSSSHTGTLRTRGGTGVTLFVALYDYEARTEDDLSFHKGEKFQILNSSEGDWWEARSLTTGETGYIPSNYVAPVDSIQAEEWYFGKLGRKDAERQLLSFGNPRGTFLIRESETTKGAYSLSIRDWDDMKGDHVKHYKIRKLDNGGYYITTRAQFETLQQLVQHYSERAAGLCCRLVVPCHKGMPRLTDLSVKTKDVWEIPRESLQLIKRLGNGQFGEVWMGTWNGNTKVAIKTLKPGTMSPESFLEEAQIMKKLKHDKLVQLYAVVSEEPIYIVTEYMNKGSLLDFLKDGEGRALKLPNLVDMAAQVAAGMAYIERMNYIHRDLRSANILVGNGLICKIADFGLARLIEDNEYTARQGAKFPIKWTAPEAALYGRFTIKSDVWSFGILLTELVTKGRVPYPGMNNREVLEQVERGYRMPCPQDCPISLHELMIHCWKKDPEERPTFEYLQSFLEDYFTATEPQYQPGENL
EPHB2, sequence (P29323 whole entry, looked up): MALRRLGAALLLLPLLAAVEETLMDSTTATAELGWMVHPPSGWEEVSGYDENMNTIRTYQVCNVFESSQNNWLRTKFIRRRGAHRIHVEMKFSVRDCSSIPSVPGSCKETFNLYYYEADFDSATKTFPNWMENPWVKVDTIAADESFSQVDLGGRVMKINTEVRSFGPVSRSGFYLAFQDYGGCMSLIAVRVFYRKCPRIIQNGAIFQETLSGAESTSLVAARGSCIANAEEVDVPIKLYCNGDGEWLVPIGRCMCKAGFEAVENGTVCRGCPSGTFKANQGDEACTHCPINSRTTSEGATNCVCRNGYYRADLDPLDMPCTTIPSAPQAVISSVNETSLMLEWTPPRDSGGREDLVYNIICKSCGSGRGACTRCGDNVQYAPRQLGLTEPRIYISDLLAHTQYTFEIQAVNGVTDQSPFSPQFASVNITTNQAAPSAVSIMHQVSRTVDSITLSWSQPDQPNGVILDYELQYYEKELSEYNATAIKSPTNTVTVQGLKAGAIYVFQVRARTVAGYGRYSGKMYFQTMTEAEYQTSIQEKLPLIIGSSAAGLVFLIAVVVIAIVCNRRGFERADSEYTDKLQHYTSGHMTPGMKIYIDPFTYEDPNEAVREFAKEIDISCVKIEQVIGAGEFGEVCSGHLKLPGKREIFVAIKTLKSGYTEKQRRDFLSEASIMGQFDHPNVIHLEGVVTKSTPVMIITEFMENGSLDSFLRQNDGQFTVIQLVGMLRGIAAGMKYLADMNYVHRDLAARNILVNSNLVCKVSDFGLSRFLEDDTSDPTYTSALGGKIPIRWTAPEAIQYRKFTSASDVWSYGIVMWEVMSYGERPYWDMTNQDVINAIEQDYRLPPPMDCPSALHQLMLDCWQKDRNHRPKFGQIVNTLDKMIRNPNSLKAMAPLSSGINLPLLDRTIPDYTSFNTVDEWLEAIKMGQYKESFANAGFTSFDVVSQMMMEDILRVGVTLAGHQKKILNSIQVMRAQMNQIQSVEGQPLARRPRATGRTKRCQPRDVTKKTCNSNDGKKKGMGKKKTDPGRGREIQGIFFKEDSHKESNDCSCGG
Hck, sequence (P08631 whole entry, looked up): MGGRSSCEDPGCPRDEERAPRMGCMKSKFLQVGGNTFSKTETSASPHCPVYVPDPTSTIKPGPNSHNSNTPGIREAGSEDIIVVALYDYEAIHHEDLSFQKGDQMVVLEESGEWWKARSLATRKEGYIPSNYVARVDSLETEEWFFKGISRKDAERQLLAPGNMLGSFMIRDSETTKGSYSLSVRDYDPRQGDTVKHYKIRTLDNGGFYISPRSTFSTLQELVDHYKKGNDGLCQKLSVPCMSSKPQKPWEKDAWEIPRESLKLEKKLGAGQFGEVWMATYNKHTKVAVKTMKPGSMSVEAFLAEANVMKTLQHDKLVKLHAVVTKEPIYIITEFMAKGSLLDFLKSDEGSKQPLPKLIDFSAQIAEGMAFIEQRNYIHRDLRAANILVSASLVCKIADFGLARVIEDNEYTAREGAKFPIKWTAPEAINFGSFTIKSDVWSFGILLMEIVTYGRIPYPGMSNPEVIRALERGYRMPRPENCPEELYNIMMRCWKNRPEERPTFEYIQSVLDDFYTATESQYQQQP

| Sequence | SH2 binding enrichment (SHP2-C SH2) | SH2 binding enrichment (Grb2 SH2) | SH2 binding enrichment (c-Src SH2) | phosphorylation enrichment (c-Abl (mouse)) | phosphorylation enrichment (EPHB2) | phosphorylation enrichment (AncSZ) | phosphorylation enrichment (Fer (mouse)) | phosphorylation enrichment (Fyn) | phosphorylation enrichment (Fes) | phosphorylation enrichment (Hck) | phosphorylation enrichment (FGFR1) | phosphorylation enrichment (MERTK) | phosphorylation enrichment (FGFR3) | phosphorylation enrichment (c-Src) | phosphorylation enrichment (EPHB1) | phosphorylation enrichment (Jak2) |
| --- | --- | --- | --- | --- | --- | --- | --- | --- | --- | --- | --- | --- | --- | --- | --- | --- |
| LNGDRYFKGIV [DCX_Y64_R59L] | 0.686 | 0.78 | 0.618 | 0.703 | 3.35 | 4.62 | 3.94 | 2.87 | 4.84 | 4.24 | 4.77 | 1.37 | 3.96 | 0.626 | 2.3 | 0.942 |
| LQRVQCDLQKA [DSP_Y1512_Y1512C] | 0.558 | 0.696 | 0.543 | 0.987 | 0.827 | 1.14 | 0.809 | 0.811 | 1.16 | 0.812 | 1.06 | 0.762 | 1.31 | 0.709 | 1.12 | 1.43 |
| LRAGVYPEKDQ [DNM2_Y626] | 0.779 | 0.611 | 0.509 | 0.803 | 0.498 | 0.754 | 0.39 | 0.454 | 0.971 | 0.662 | 0.467 | 0.43 | 0.633 | 0.507 | 0.443 | 0.773 |
| LRNIDYYRLDG [ATRX_Y2083] | 11.9 | 0.874 | 0.775 | 0.815 | 0.776 | 1.3 | 0.499 | 3.96 | 1.58 | 1.16 | 13.1 | 0.851 | 8.11 | 3.35 | 1.07 | 6.17 |
| LRVHSYKSMQH [DRC7_Y516_P521H] | 1.18 | 0.881 | 0.841 | 1.13 | 0.772 | 1.4 | 0.949 | 0.954 | 0.883 | 0.634 | 0.533 | 0.896 | 0.69 | 1.06 | 0.911 | 1.42 |
| LSNFNYEQRGA [API5_Y497_G493S] | 0.706 | 0.897 | 0.48 | 1.11 | 1.15 | 1.21 | 0.651 | 1.14 | 1.51 | 0.509 | 0.918 | 0.796 | 1.02 | 1.14 | 0.796 | 1.41 |
| LTERGYSFTTT [ACTB_Y198] | 0.654 | 0.746 | 0.596 | 0.586 | 0.492 | 0.837 | 0.554 | 0.456 | 0.758 | 0.432 | 0.504 | 0.408 | 0.78 | 0.46 | 0.472 | 0.756 |
| LTERGYSFVTT [ACTA1_Y200] | 6.24 | 0.794 | 7.8 | 0.941 | 0.95 | 1.4 | 0.823 | 0.582 | 1.41 | 0.708 | 0.927 | 0.769 | 1.17 | 0.657 | 0.796 | 1.1 |
| LYEDHYLLGTS [ASS1_Y87_R86H] | 0.565 | 0.9 | 0.571 | 1.1 | 3.05 | 1.66 | 16.1 | 1.86 | 1.37 | 1.19 | 0.689 | 2.08 | 0.972 | 2.73 | 12.3 | 2.17 |
| LYSGDCYRIQG [DDR2_Y740_Y740C] | 0.701 | 0.828 | 0.522 | 0.808 | 1.3 | 1.05 | 0.73 | 1.18 | 1.18 | 1.16 | 0.956 | 6.98 | 1.11 | 1.22 | 1.8 | 1.04 |
| LYSGDYYRIQG [DDR2_Y740] | 0.531 | 1.02 | 0.984 | 7.77 | 30.3 | 7.93 | 1.81 | 11.5 | 1.83 | 10.4 | 32.7 | 19.3 | 26 | 10.5 | 29.2 | 23.8 |
| MASTSYDYCRV [BST2_Y6] | 0.671 | 0.904 | 1.79 | 0.956 | 3.51 | 1.11 | 2.69 | 0.481 | 0.68 | 0.905 | 1.27 | 0.904 | 0.851 | 0.577 | 4.88 | 0.687 |
| MDNQEYKDAYK [BRDT_Y331] | 1.05 | 0.814 | 0.499 | 0.677 | 0.402 | 0.932 | 0.456 | 0.417 | 1.12 | 0.474 | 0.485 | 0.445 | 0.652 | 0.368 | 0.546 | 0.901 |

Second part, led by results:

| SH2 binding enrichment (SHP2-C SH2) | SH2 binding enrichment (Grb2 SH2) | SH2 binding enrichment (c-Src SH2) | Sequence | phosphorylation enrichment (c-Abl (mouse)) | phosphorylation enrichment (EPHB2) | phosphorylation enrichment (AncSZ) | phosphorylation enrichment (Fer (mouse)) | phosphorylation enrichment (Fyn) | phosphorylation enrichment (Fes) | phosphorylation enrichment (Hck) | phosphorylation enrichment (FGFR1) | phosphorylation enrichment (MERTK) | phosphorylation enrichment (FGFR3) | phosphorylation enrichment (c-Src) | phosphorylation enrichment (EPHB1) | phosphorylation enrichment (Jak2) |
| --- | --- | --- | --- | --- | --- | --- | --- | --- | --- | --- | --- | --- | --- | --- | --- | --- |
| 0.743 | 0.867 | 0.551 | LNCIYYKDQTG [RS1_Y166_W163C] | 1.08 | 1.15 | 3.56 | 1.55 | 2.93 | 3.26 | 4.01 | 2.69 | 1.78 | 4.51 | 1.4 | 3.64 | 1.42 |
| 1.78 | 1.23 | 1.79 | LNPFIYSLRNW [OR1A2_Y288] | 4.13 | 0.819 | 2.05 | 2.28 | 7.05 | 1.73 | 6.49 | 0.644 | 4.23 | 1.1 | 8.69 | 1.52 | 1.34 |
| 0.731 | 0.995 | 0.473 | LPKVSYMKAID [GLRA1_Y307_V308M] | 0.967 | 0.711 | 0.941 | 0.65 | 0.694 | 0.911 | 0.406 | 0.481 | 0.484 | 0.77 | 0.574 | 0.632 | 0.707 |
| 1.31 | 0.965 | 1.72 | LPSKDYAEVRR [HP_Y272_G276R] | 1.75 | 0.638 | 0.598 | 0.419 | 0.559 | 0.832 | 0.7 | 0.712 | 0.361 | 0.865 | 0.832 | 1.48 | 0.539 |
| 0.947 | 0.689 | 1.78 | LQFRNYQQLFD [MAN2A1_Y442_K440R] | 1.3 | 0.928 | 2.02 | 0.65 | 1.08 | 2.25 | 0.771 | 0.857 | 0.789 | 1.41 | 1.03 | 1.42 | 2.42 |
| 1.03 | 0.901 | 0.499 | LQTFRYHGHSM [PDHA1_Y289_YF] | 0.775 | 0.61 | 0.664 | 0.592 | 0.948 | 1.06 | 0.616 | 0.68 | 0.716 | 0.999 | 0.761 | 0.843 | 0.876 |
| 0.888 | 1.14 | 0.594 | LSAPCYLNRIS [HEXA_Y421_W420C] | 0.631 | 0.552 | 0.825 | 0.424 | 0.377 | 0.82 | 0.507 | 0.495 | 0.382 | 0.535 | 0.422 | 0.447 | 0.634 |
| 0.49 | 0.708 | 0.454 | LSIQCYLRALD [HMGCS2_Y262] | 1.98 | 1.31 | 2.06 | 0.822 | 0.825 | 2.81 | 1.12 | 0.672 | 0.802 | 1.91 | 1.01 | 1.25 | 2.35 |
| 1.1 | 1.23 | 0.797 | LSIWPYLQKID [MFSD8_Y63_M58L] | 0.6 | 0.759 | 1.16 | 0.577 | 0.501 | 1.37 | 0.566 | 0.584 | 0.6 | 0.85 | 0.686 | 0.929 | 1.43 |
| 0.563 | 0.678 | 0.421 | LSVEIHDRREF [ITGB7_Y753_Y753H_YF] | 0.86 | 1.1 | 1.63 | 0.795 | 0.65 | 1.59 | 0.814 | 0.87 | 0.558 | 1.17 | 0.795 | 0.88 | 1.3 |
| 0.906 | 0.89 | 0.692 | LTSKPYAFTAQ [NDUFS1_Y236_R241Q] | 0.521 | 0.471 | 0.542 | 0.524 | 0.489 | 0.696 | 0.363 | 0.445 | 0.411 | 0.371 | 0.345 | 0.469 | 0.625 |
| 4.03 | 3.76 | 2.03 | LTVVIYVLVGR [EPHA3_Y561_I564V] | 0.81 | 0.251 | 1.16 | 0.348 | 1.12 | 0.63 | 0.168 | 0.54 | 0.479 | 0.44 | 0.183 | 0.26 | 0.391 |
| 2.64 | 1.58 | 1.44 | LVMFFYAIFGM [SCN1A_Y1684_I1683F] | 0.937 | 0.566 | 1.35 | 0.708 | 0.789 | 1.23 | 0.446 | 0.898 | 0.84 | 1.34 | 0.524 | 0.608 | 1.06 |
| 0.842 | 1.39 | 0.893 | LVMFISAIFGM [SCN1A_Y1684_Y1684S] | 1.36 | 1.07 | 1.69 | 1.33 | 0.788 | 2.05 | 0.804 | 1.15 | 0.722 | 1.46 | 0.922 | 1.1 | 1.77 |
| 2.6 | 1.54 | 1.31 | LYSINYLHFGE [KDM4C_Y201] | 2.08 | 9.01 | 2.05 | 11.1 | 3.5 | 1.57 | 3.5 | 3.6 | 11 | 3.52 | 2.56 | 10.7 | 1.1 |
| 0.713 | 0.766 | 0.98 | MAYDRYVAICS [OR8D4_Y123_C120Y] | 1.03 | 2.12 | 1.01 | 0.547 | 0.486 | 1.01 | 0.745 | 0.603 | 0.77 | 0.753 | 0.762 | 1.28 | 1.15 |
| 1.08 | 0.897 | 0.957 | MCITQYKRESQ [PRNP_Y218_E219K] | 0.454 | 0.587 | 0.875 | 0.501 | 0.519 | 0.837 | 0.433 | 0.443 | 0.475 | 0.606 | 0.42 | 0.384 | 0.736 |
| 0.468 | 0.785 | 0.467 | MECLPYGSLRD [JAK2_Y934_Y931C] | 0.75 | 0.577 | 1.08 | 0.669 | 0.753 | 1.29 | 0.711 | 0.522 | 0.409 | 0.794 | 1.65 | 0.598 | 1.07 |
| 0.749 | 0.774 | 0.733 | MFCASYDTKQE [F10_Y407_G406S] | 0.731 | 0.717 | 1.01 | 0.571 | 0.558 | 1.17 | 0.554 | 0.561 | 0.552 | 0.746 | 0.511 | 0.536 | 0.986 |
| 0.872 | 0.796 | 0.5 | MFRAGYDTKQE [F10_Y407_C404R] | 0.497 | 0.447 | 0.671 | 0.391 | 0.395 | 0.761 | 0.383 | 0.379 | 0.335 | 0.448 | 0.332 | 0.475 | 0.589 |

Reference: the supplement of paper PMC10065799, “High-throughput profiling of sequence recognition by tyrosine kinases and SH2 domains using bacterial peptide display” (eLife, 2023)
